These results are taken from patent publication US20240425607A1, “IL-18BP ANTAGONIST ANTIBODIES AND THEIR USE IN MONOTHERAPY AND COMBINATION THERAPY IN THE TREATMENT OF CANCER” (Compugen Ltd., priority 2023, published 2024).

A short description of one data set: SEC-HPLC % monomer. The settings on record: optimized antibodies. The data set is classed as physicochemical. How it is done:
A TSKgel SuperSW mAb HTP column (22855) was used for fast SEC analysis of mammalian produced mAbs at 0.4 mL/min with a cycle time of 6 min/run. 200 mM Sodium Phosphate and 250 mM Sodium Chloride was used as the mobile phase.
For orientation: In gel filtration, larger molecules generally elute earlier.

For another data set, the target named is T1, endogenous IL-18BP (Homo sapiens, UniProt O95998).
T1 construct: endogenous in cells; host or cells: MEL624 cells and human TILs
T1 sequence (O95998 31-194): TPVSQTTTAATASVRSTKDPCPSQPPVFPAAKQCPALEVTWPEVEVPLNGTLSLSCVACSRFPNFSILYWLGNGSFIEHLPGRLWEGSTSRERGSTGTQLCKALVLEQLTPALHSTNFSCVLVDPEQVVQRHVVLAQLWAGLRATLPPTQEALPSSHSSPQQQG
In words: TIL:MEL624 co-culture with endogenous IL-18BP levels. Type of data set: cell-based. The conditions noted are these: 5 μg/ml; IL-18 3.7 ng/ml, no added IL-18BP; 18 hours; vs isotype. As for the experimental part:
A. Schematic representation of assay setup. MEL624 cells were co-cultured with human TILs that were previously enriched for MART1 or gp100 peptide-specific clones. […] The co-culture was set for 18 hours following which IFNg levels were measured in supernatants. […] Representative examples from two TIL donors are shown.

In data set [1] the test system is human TDCs with endogenous IL18 and IL18BP. Kind of data set: Ex vivo culture of human tumor dissociated cells (TDCs). The data set is classed as cell-based. How it is done:
Resected tumor specimens were cut into 1 mm pieces using scalpel and transferred into enzymatic digestion mix (Tumor Dissociation kit, Miltenyi, 130-095-929). Dissociation was done according to the manufacturer's instructions using gentle MACS Dissociator (Miltenyi Biotec). Dissociation time lasted 1 h under mechanical rotation and heating. Samples were centrifuged for 3 min at 300 g, pellet was resuspended in RPMI, passed through a MACS SmartStrainer (70 μm), and centrifuged for 7 min at 300 g. Cells were resuspended with RBC for 3 min, washed with RPMI 1640, transferred through 40 μm filter and centrifuged for 7 min at 300 g. Finally, cells were resuspended in PBS, stained with Trypan blue and counted. Samples were then stained for flow cytometric analyses or resuspended in fetal bovine serum containing 10% of dimethyl sulfoxide for storage in liquid nitrogen.
Human TDC samples were seeded at 0.1×10^6 of CD45+ cells per well in 96-well plate, pre-coated with anti-CD3 and anti-CD28 antibodies (10 μg/ml both). Complete medium, [RPMI 1640 (BI, Cat. #01-110-1A) supplemented with 10% human AB serum (Sigma, Cat. #H3667), 1% Penicillin/Streptomycin (BI, Cat. #03-031-1B), 1% 1-glutamine (Life Technologies, Cat. #35050-038) and 1% of sodium pyruvate (BI, Cat. #03-042-1B)] was used. […]

B1: ADI-71739: anti-IL18-BP antibody, sequences in FIG. 2K; 66716 lineage (antibody, V domains shown)
VH: QLQLQESGPGLVKPSETLSLTCTVSGGSISSPDYPWGWIRQPPGKGLEWIGSIYYQGATYYNPSLKSRVTISVDTSKNQFSLKLSSVTAADTAVYYCARGPYRQLFDYWGQGTLVTVSS
VL: DIQMTQSPSSVSASVGDRVTITCRASQGISSWLAWYQQKPGKAPKLLIYAASSLQSGVPSRFSGSGSGTDFTLTISSLQPEDFATYYCQQGSVFPYTFGGGTKVEIK
Consider B1, for which, in “SEC-HPLC % monomer”, the “SEC-HPLC, % monomer” value is reported as 94.9%. Besides, the “IFNg release by tumor infiltrating lymphocytes” value with endogenous IL-18BP is on record as “increased IFNg release”. For the same molecule, the “Cytokine and Granzyme B secretion by TDCs, vs media” value in data set [1] (10 μg/ml, anti-CD3/anti-CD28 stimulation, human ovarian TDC sample) is “enhanced TNFa, IFNg, IL2 and Granzyme B secretion”. In addition, the “Cytokine and Granzyme B secretion by TDCs, combination with pembrolizumab vs Pembro alone” value in data set [1] (each 10 μg/ml) was “further increased TNFa, IFNg, and Granzyme B secretion”.
